Laboratory results from patent EP3277718B1 (Baxalta GmbH, dated 2021).

Experiments:
[1] = target: T1, human MIF (macrophage migration inhibitory factor), recombinant (human, UniProt P14174 2-115); assay: cell-based or functional assay
[2] = target: T1, human MIF (macrophage migration …); assay: SPR, Biacore 3000, RAM9 amine-coupled to CM5 chip, MIF injected at 40-480 nM, 1:1 Langmuir fit with mass transfer

T1 sequence (P14174 2-115 limits assumed): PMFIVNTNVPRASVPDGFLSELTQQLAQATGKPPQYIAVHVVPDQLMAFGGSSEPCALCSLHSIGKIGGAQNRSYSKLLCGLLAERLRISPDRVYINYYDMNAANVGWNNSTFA

B1: RAM9 (antibody, human IgG1, kappa, V domains shown)
VH: EVQLLESGGGLVQPGGSLRLSCAASGFTFSIYSMNWVRQAPGKGLEWVSSIGSSGGTTYYADSVKGRFTISRDNSKNTLYLQMNSLRAEDTAVYYCAGSQWLYGMDVWGQGTTVTVSS
VL: DIQMTQSPSSLSASVGDRVTITCRSSQRIMTYLNWYQQKPGKAPKLLIFVASHSQSGVPSRFRGSGSETDFTLTISGLQPEDSATYYCQQSFWTPLTFGGGTKVEIKR
notes: also deposited as plasmids DSM 25860 (hc) and DSM 25859 (lc); also called anti-MIF antibody RAM9; anti-oxMIF antibody
For B1, the “Potency (IC 50); inhibition of random migration of human U937 cells, Transwell chemokinesis assay” value [1] was 1 nM and the Kd [2] was 1.7 nM.
